Data taken from US9260500B2, “Peptide and use thereof” (Takeda Pharmaceutical Company Limited, priority 2009, dated 2016).
Starred links: 1 amine or outer side, 2 acyl side, 3 side chain; linkers in the order of their positions; H or OH if unused. Non-standard residues stand in square brackets, D forms with d. *: point of attachment. X9 = (cis-2,6-dimethylmorpholin-4-yl)carbonyl, C[C@@H]1CN(C(=O)*)C[C@H](C)O1; X4 = ((1S)-1-Carboxy-3-methylbutyl)carbamoyl, CC(C)C[C@H](NC(=O)*)C(=O)O; X6 = ((1S)-1-carboxy-2-hydroxyethyl)carbamoyl, O=C(O)[C@H](CO)NC(=O)*; (3-carboxypropyl)carbamoyl = O=C(O)CCCNC(=O)*; Imidazole4carbonyl = O=C(c1cnc[nH]1)*; hArg = N=C(N)NCCCC[C@H](N)C(=O)O; tBuAla = CC(C)(C)C[C@H](N)C(=O)O; αMeF = C[C@](N)(Cc1ccccc1)C(=O)O; 4Pal = N[C@@H](Cc1ccncc1)C(=O)O; dHyp = O=C(O)[C@H]1C[C@H](O)CN1; Cha = N[C@@H](CC1CCCCC1)C(=O)O; Suc = O=C(CCC(=O)[*:2])[*:1]; Iva = CC[C@](C)(N)C(=O)O; Nle = CCCC[C@H](N)C(=O)O; Aib = CC(C)(N)C(=O)O

Columns and labels:
human Y2 receptor [1] = biological target: T1, human Y2 receptor (Homo sapiens, UniProt P49146); assay: Receptor Binding Assay (RBA) for Human Y2, [125I]-PYY displacement on hY2R/CHO membrane fraction; conditions: IC50 of test compound/IC50 of PYY(3-36) (PYY(3-36) taken as 1)
T1 construct: expressed in transfected cells; membrane fraction
T1 sequence (P49146 1-381): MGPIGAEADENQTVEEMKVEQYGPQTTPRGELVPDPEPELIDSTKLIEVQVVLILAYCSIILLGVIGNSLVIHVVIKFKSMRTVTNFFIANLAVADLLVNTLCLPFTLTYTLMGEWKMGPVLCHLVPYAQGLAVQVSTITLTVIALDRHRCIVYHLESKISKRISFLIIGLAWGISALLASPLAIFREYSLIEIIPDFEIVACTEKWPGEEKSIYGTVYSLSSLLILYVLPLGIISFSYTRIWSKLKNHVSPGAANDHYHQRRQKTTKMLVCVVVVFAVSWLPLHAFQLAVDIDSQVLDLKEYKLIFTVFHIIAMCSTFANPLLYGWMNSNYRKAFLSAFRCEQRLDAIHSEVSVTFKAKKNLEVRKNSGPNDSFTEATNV
Procedure, shortened: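 Read-out is [125I]-PYY displacement from membranes of CHO/dhfr− cells stably transfected with human Y2R. Membranes were obtained by disrupting cells in a buffer of 10 mM NaHCO3, 5 mM EDTA and protease inhibitors.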

human Y2 receptor [2] = biological target: T1, human Y2 receptor; assay: Human Y2 Receptor G Protein Binding Assay (GBA), [35S]GTPγS; assay type: biochemical; conditions: EC50 of test compound/EC50 of PYY(3-36) (PYY3-36 taken as 1), hY2R/CHO membrane fraction
Procedure, shortened: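 Agonism measured as [35S]GTPγS binding, read by GF/C filtration and scintillation counting after 120 min at room temperature, using human Y2 membranes at 1 μg protein/mL in pH 7.4 Tris/MgCl2/NaCl/GDP buffer. Compound serially diluted 100 μM–1 nM; EC50 normalized to PYY(3-36) (ratio = compound/PYY).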

male C57EL/6J mice = assay: 3-Days Continuous Subcutaneous Administration Test-1 (food intake suppressing activity); assay type: in vivo, mouse; conditions: 0.03 mg/kg/day, subcutaneous Alzet pump, food consumption over 3 days; relative to food intake suppression rate for PYY(3-36) (1 mg/kg/day) taken as 100%
Procedure, shortened: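 Male […] mice, 12-13 weeks, received compound at 0.03 mg/kg/day by subcutaneous osmotic pump (50% DMSO vehicle), housed singly with free food access. Food consumed over 3 days measured; suppression expressed relative to PYY(3-36) (1 mg/kg/day) set as 100%.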

| Substance | RBA IC50 Ratio (human Y2 receptor [1]) | GBA EC50 Ratio (human Y2 receptor [2]) | food intake suppression rate (%) (male C57EL/6J mice) |
| --- | --- | --- | --- |
| 4-Imidazolecarbonyl-[D-Hyp24, Iva25, Pya(4)26, Cha27,36, αMePhe28, Lys30, Aib31]-PYY(23-36) (Imidazole4carbonyl-S[dHyp][Iva][4Pal][Cha][αMeF]NK[Aib]TRQR[Cha]-NH2; SMILES CC[C@](C)(NC(=O)[C@H]1C[C@H](O)CN1C(=O)[C@H](CO)NC(=O)c1cnc[nH]1)C(=O)N[C@@H](Cc1ccncc1)C(=O)N[C@@H](CC1CCCCC1)C(=O)N[C@@](C)(Cc1ccccc1)C(=O)N[C@@H](CC(N)=O)C(=O)N[C@@H](CCCCN)C(=O)NC(C)(C)C(=O)N[C@H](C(=O)N[C@@H](CCCNC(=N)N)C(=O)N[C@@H](CCC(N)=O)C(=O)N[C@@H](CCCNC(=N)N)C(=O)N[C@@H](CC1CCCCC1)C(N)=O)[C@@H](C)O) [compound No. 343] | 0.65 | 1.0 | 15 |
| [(1S)-1-carboxy-2-hydroxyethyl]carbamoyl-[D-Pro24, Pya(4)26, Cha27,36, Aib28,31, Lys30]-PYY(23-36) (X6-S[dP]R[4Pal][Cha][Aib]NK[Aib]TRQR[Cha]-NH2; SMILES C[C@@H](O)[C@H](NC(=O)C(C)(C)NC(=O)[C@H](CCCCN)NC(=O)[C@H](CC(N)=O)NC(=O)C(C)(C)NC(=O)[C@H](CC1CCCCC1)NC(=O)[C@H](Cc1ccncc1)NC(=O)[C@H](CCCNC(=N)N)NC(=O)[C@H]1CCCN1C(=O)[C@H](CO)NC(=O)N[C@@H](CO)C(=O)O)C(=O)N[C@@H](CCCNC(=N)N)C(=O)N[C@@H](CCC(N)=O)C(=O)N[C@@H](CCCNC(=N)N)C(=O)N[C@@H](CC1CCCCC1)C(N)=O) [compound No. 288] | 0.52 | 1.3 | 28 |
| [(1S)-1-Carboxy-3-methylbutyl]carbamoyl-[D-Pro24, Pya(4)26, Cha27,36, Aib28,31, Lys30]-PYY(23-36) (X4-S[dP]R[4Pal][Cha][Aib]NK[Aib]TRQR[Cha]-NH2; SMILES CC(C)C[C@H](NC(=O)N[C@@H](CO)C(=O)N1CCC[C@@H]1C(=O)N[C@@H](CCCNC(=N)N)C(=O)N[C@@H](Cc1ccncc1)C(=O)N[C@@H](CC1CCCCC1)C(=O)NC(C)(C)C(=O)N[C@@H](CC(N)=O)C(=O)N[C@@H](CCCCN)C(=O)NC(C)(C)C(=O)N[C@H](C(=O)N[C@@H](CCCNC(=N)N)C(=O)N[C@@H](CCC(N)=O)C(=O)N[C@@H](CCCNC(=N)N)C(=O)N[C@@H](CC1CCCCC1)C(N)=O)[C@@H](C)O)C(=O)O) [compound No. 271] | 0.82 | 0.82 | 28 |
| 3-Carboxypropionyl-[D-Pro24, Pya(4)26, Cha27,36, Aib28,31, Lys30]-PYY(24-36) (Suc-[dP]R[4Pal][Cha][Aib]NK[Aib]TRQR[Cha]-NH2; SMILES C[C@@H](O)[C@H](NC(=O)C(C)(C)NC(=O)[C@H](CCCCN)NC(=O)[C@H](CC(N)=O)NC(=O)C(C)(C)NC(=O)[C@H](CC1CCCCC1)NC(=O)[C@H](Cc1ccncc1)NC(=O)[C@H](CCCNC(=N)N)NC(=O)[C@H]1CCCN1C(=O)CCC(=O)O)C(=O)N[C@@H](CCCNC(=N)N)C(=O)N[C@@H](CCC(N)=O)C(=O)N[C@@H](CCCNC(=N)N)C(=O)N[C@@H](CC1CCCCC1)C(N)=O) [compound No. 303] | 1.2 | 1.2 | 20 |
| (3-carboxypropyl)carbamoyl-[D-Pro24, Pya(4)26, Cha27,36, Aib28,31, Lys30]-PYY(23-36) ({(3-carboxypropyl)carbamoyl}-S[dP]R[4Pal][Cha][Aib]NK[Aib]TRQR[Cha]-NH2; SMILES C[C@@H](O)[C@H](NC(=O)C(C)(C)NC(=O)[C@H](CCCCN)NC(=O)[C@H](CC(N)=O)NC(=O)C(C)(C)NC(=O)[C@H](CC1CCCCC1)NC(=O)[C@H](Cc1ccncc1)NC(=O)[C@H](CCCNC(=N)N)NC(=O)[C@H]1CCCN1C(=O)[C@H](CO)NC(=O)NCCCC(=O)O)C(=O)N[C@@H](CCCNC(=N)N)C(=O)N[C@@H](CCC(N)=O)C(=O)N[C@@H](CCCNC(=N)N)C(=O)N[C@@H](CC1CCCCC1)C(N)=O) [compound No. 293] | 1.2 | 0.97 | 51 |
| 4-Imidazolecarbonyl-[D-Pro24, Nle25, Pya(4)26, Cha27,36, Aib28,31, Lys30]-PYY(23-36) (Imidazole4carbonyl-S[dP][Nle][4Pal][Cha][Aib]NK[Aib]TRQR[Cha]-NH2; SMILES CCCC[C@H](NC(=O)[C@H]1CCCN1C(=O)[C@H](CO)NC(=O)c1cnc[nH]1)C(=O)N[C@@H](Cc1ccncc1)C(=O)N[C@@H](CC1CCCCC1)C(=O)NC(C)(C)C(=O)N[C@@H](CC(N)=O)C(=O)N[C@@H](CCCCN)C(=O)NC(C)(C)C(=O)N[C@H](C(=O)N[C@@H](CCCNC(=N)N)C(=O)N[C@@H](CCC(N)=O)C(=O)N[C@@H](CCCNC(=N)N)C(=O)N[C@@H](CC1CCCCC1)C(N)=O)[C@@H](C)O) [compound No. 302] | 1.7 | 1.2 | 22 |
| (cis-2,6-Dimethylmorpholin-4-yl)carbonyl-[D-Pro24, Pya(4)26, Cha27,36, Aib28,31, Lys30]-PYY(23-36) (X9-S[dP]R[4Pal][Cha][Aib]NK[Aib]TRQR[Cha]-NH2; SMILES C[C@@H]1CN(C(=O)N[C@@H](CO)C(=O)N2CCC[C@@H]2C(=O)N[C@@H](CCCNC(=N)N)C(=O)N[C@@H](Cc2ccncc2)C(=O)N[C@@H](CC2CCCCC2)C(=O)NC(C)(C)C(=O)N[C@@H](CC(N)=O)C(=O)N[C@@H](CCCCN)C(=O)NC(C)(C)C(=O)N[C@H](C(=O)N[C@@H](CCCNC(=N)N)C(=O)N[C@@H](CCC(N)=O)C(=O)N[C@@H](CCCNC(=N)N)C(=O)N[C@@H](CC2CCCCC2)C(N)=O)[C@@H](C)O)C[C@H](C)O1) [compound 269] | 0.91 | 0.65 | 11 |
| 4-Imidazolecarbonyl-[D-Pro24, Iva25, Pya(4)26, Cha27,30,36, Aib28,31]-PYY(23-36) (Imidazole4carbonyl-S[dP][Iva][4Pal][Cha][Aib]N[Cha][Aib]TRQR[Cha]-NH2; SMILES CC[C@](C)(NC(=O)[C@H]1CCCN1C(=O)[C@H](CO)NC(=O)c1cnc[nH]1)C(=O)N[C@@H](Cc1ccncc1)C(=O)N[C@@H](CC1CCCCC1)C(=O)NC(C)(C)C(=O)N[C@@H](CC(N)=O)C(=O)N[C@@H](CC1CCCCC1)C(=O)NC(C)(C)C(=O)N[C@H](C(=O)N[C@@H](CCCNC(=N)N)C(=O)N[C@@H](CCC(N)=O)C(=O)N[C@@H](CCCNC(=N)N)C(=O)N[C@@H](CC1CCCCC1)C(N)=O)[C@@H](C)O) [compound No. 318] | 2.3 | 1.9 | 18 |
| Ac-[D-Pro24, Iva25, Pya(4)26, Cha27,36, Aib28,31, Har30]-PYY(23-36) (Ac-S[dP][Iva][4Pal][Cha][Aib]N[hArg][Aib]TRQR[Cha]-NH2; SMILES CC[C@](C)(NC(=O)[C@H]1CCCN1C(=O)[C@H](CO)NC(C)=O)C(=O)N[C@@H](Cc1ccncc1)C(=O)N[C@@H](CC1CCCCC1)C(=O)NC(C)(C)C(=O)N[C@@H](CC(N)=O)C(=O)N[C@@H](CCCCNC(=N)N)C(=O)NC(C)(C)C(=O)N[C@H](C(=O)N[C@@H](CCCNC(=N)N)C(=O)N[C@@H](CCC(N)=O)C(=O)N[C@@H](CCCNC(=N)N)C(=O)N[C@@H](CC1CCCCC1)C(N)=O)[C@@H](C)O) [compound No. 317] | 0.65 | 1.0 | 49 |
| Ac-[Glu23, D-Pro24, Pya(4)26, Cha27,36, Leu(Me)28, Lys30, Aib31]-PYY(23-36) (Ac-E[dP]R[4Pal][Cha][tBuAla]NK[Aib]TRQR[Cha]-NH2; SMILES CC(=O)N[C@@H](CCC(=O)O)C(=O)N1CCC[C@@H]1C(=O)N[C@@H](CCCNC(=N)N)C(=O)N[C@@H](Cc1ccncc1)C(=O)N[C@@H](CC1CCCCC1)C(=O)N[C@@H](CC(C)(C)C)C(=O)N[C@@H](CC(N)=O)C(=O)N[C@@H](CCCCN)C(=O)NC(C)(C)C(=O)N[C@H](C(=O)N[C@@H](CCCNC(=N)N)C(=O)N[C@@H](CCC(N)=O)C(=O)N[C@@H](CCCNC(=N)N)C(=O)N[C@@H](CC1CCCCC1)C(N)=O)[C@@H](C)O) [compound No. 169] | 0.48 | 0.86 | 55 |
